B1: sdAb E3 (VHH)
VHH: DVQLQESGGGLVQAGGSLRLACAASGRTLSSYVVSWFRQAPGKERKFVAAITWSGLSTTYLDSVQGRFTISRDNTKDTVYLQMNSLKPQDTAIYYCAAGPNIPSILRTRESEYAYWGQGTQVTVS
B2: sdAb B1 (VHH)
VHH: QVQLQESGGGLVQTGGSLRLSCAVHGRTFSNTGMGWFRQAPGNERQFVAIISPSGTSTYYADSVKGRFTISRDPAKNTVYLQMNSLKMDDTAVYYCAASYGSNWSTLRHQRRNEYDAWGQGTQVAVS
B3: sdAb F5 (VHH)
VHH: DVQLQESGGGLVQPGGSLRLSCAASGSIFSIDIMGWYRQAPGKQRELVATMPEGNYINYADSVKGRLTLSRDKGKNTVYLQLNSLKPEDTAVYYCYGFGVREGRGNVYWGQGTQVTVS
B4: sdAb B3 (VHH)
VHH: DVQLQESGGGLVQAGGSLRLSCAASGFIFRLAGMSWVRQAPGKGFEWVSGITMDGSTTNYADSVKGRFTISRDNSKNRLYLQMNSLKPEDTAVYYCARGAKGGYNDPRGQGTQVTVS
B5: sdAb B2 (VHH)
VHH: QVQLVESGGGLVQAGGSLRLSCAVFGSTFSNNVADWYRQAPGKQRELVARISASGATREYGDSVKGRFTISRDDAKNTMYLQMNNLKPEDTAVYRCHKIEWEDLSRKDYWGQGTQVTVS
B6: sdAb F4 (VHH)
VHH: DVQLQESGGGLVQAGGSLRLSCAVSGLSFSSMGWFRQPPGKEREFVAAISLYSGSTYYADSVKGRFTISSDNAKSTVYLQMNSLKPEDAAVYFCAADRQRTWSTFYASRQATYNYWGQGTQVTVTS
B7: sdAb F3 (VHH)
VHH: DVQLQESGGGLVQAGGSLKLSCAASRGSLSRWDVAWFRQAPGKERSFVTRISWSGTTSYYADAVKGRFAISRDNAKNTVYLQMNSLKPEDTAVYYCAVALYGNRGYYDVNAHSYWGQGTQVTVS
B8: sdAb F1 (VHH)
VHH: DVQLQESGGGLVQAGGSLKLSCAASGGSLSRYDMGWFRQAPGKEREFVARISWSGTTKYYADAVKGRFAISRDNAKNTVYLQMNSLKPEDTAVYYCAAAFYGNRGYYDVNAYTSSGQGTQVTVS
B9: sdAb D1 (VHH)
VHH: DVQLQESGGGLVQAGGSLRLSCAASGLTFSRCDMGWFRQAPGKEREFVARISANGASTHYADFVKGRFTISRDNAKNTVYLQMNYLKPEDTAVYICAAARVPVTWQLYDYWGQGTQVTVS

The source of these data is patent US20250171562A1 (ALK ABELL, published 2025).

T1 sequence (P01854 other isoform, or with tags, fused parts or gaps limits assumed): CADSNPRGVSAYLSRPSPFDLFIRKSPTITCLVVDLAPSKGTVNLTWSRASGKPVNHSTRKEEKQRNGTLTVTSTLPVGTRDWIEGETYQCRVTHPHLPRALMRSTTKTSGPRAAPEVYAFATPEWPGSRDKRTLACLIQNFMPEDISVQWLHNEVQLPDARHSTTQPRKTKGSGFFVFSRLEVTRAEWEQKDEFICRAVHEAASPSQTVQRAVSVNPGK

One assay has as its target T1, IgE-Fc Cε3-4 (human, UniProt P01854-1 209-428, limits assumed).
T1 construct: domain: Cε3-Cε4; coated at 2 µg/mL in the ELISA; also called IgE-Fc Cε3-Cε4
As to the kind of experiment: ELISA, immobilised IgE-Fc Cε3-4. How it is done:
SdAb monomers of interest (table 1) and identified in example 2 were amplified from pNT plasmid by PCR and recloned in pET22b plasmid by SLICE cloning reaction. Thereby, a pelB signal sequence and a C-terminal his/HA tag were added to the sdAbs allowing for secretion into periplasmic space and subsequent purification and detection. SdAbs were expressed in E. coli Rosetta (DE3) cells using 2YT media. Expression was induced in early exponential phase with 0.5 mM IPTG and carried overnight at 20° C.-25° C. Purification of sdAbs from supernatant or supernatant+periplasmic extract was performed by IMAC using HisTrap excel column (Cytiva) as first step and by SEC with a Hiload 16-600 Superdex® 75 pg (Cytiva) column as second step. Size and purity of each sdAbs were evaluated on a 15% acrylamide SDS-PAGE. Then, immunoreactivity of sdAbs against immobilized IgE-Fc Cε2-4 and IgE-Fc Cε3-4 was analysed by ELISA. IgE-Fc were coated at 2 μg/mL overnight in a Nunc MaxiSorp plate (ThermoFisher). After blocking sdAbs were added at a 1:10 dilution in TBS and incubated 3h at room temperature. Detection was performed using a mouse anti-HA antibody (ThermoFisher) and an anti-mouse IgG AP conjugated (Sigma Aldrich).
A general note: ELISA stands for enzyme-linked immunosorbent assay.
As for B1, the binding result is reported as “no binding”.
Still for that read-out and setting: to B2 belongs “no binding”.
On the same count and under the same terms, under B3 stands “no binding”.
On the same count and under the same terms, to B4 belongs “no binding”; to B5, “no binding”; to B6, “no binding”.
Turning to B7, the binding result is recorded as “no binding”.
Regarding B8, the binding result is recorded as “no binding”.
B9: the binding result is listed as “no binding”.

The target of another assay is T2, recombinant human IgE (human, UniProt P01854-1 1-428).
T2 construct: made in-house (ALK); preloaded on immobilised FcεRIα in the displacement ELISA
T2 sequence (P01854 other isoform, or with tags, fused parts or gaps): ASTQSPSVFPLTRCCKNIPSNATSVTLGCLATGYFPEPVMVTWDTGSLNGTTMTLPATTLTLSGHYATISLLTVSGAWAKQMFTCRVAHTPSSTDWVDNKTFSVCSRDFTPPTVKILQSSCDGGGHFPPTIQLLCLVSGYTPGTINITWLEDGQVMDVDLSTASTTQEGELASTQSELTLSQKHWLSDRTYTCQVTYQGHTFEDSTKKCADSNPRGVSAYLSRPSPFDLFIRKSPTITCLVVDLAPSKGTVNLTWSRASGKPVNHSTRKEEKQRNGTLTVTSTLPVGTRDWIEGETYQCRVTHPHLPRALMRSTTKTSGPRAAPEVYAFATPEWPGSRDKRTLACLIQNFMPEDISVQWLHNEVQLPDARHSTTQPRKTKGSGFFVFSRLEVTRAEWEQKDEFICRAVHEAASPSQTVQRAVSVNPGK
As to the kind of experiment: IgE-FcεRIα displacement ELISA. The procedure, abridged:
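Streptavidin-coated plates carried site-specifically biotinylated recombinant human FcεRIα, loaded with recombinant human IgE at 13 ng/ml. sdAbs in a pM–μM series were added for 1 h, and displaced IgE was washed off. Percent displacement was the signal reduction versus the no-sdAb control, giving EC50 and maximal effect.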
In the case of B1, the Max effect came out at 0%.
As for B2, the EC50 was found to be 200 nM and the Max effect stood at 65%.
In the case of B3, the Max effect turned out to be 35%.
As for B4, the Max effect was found to be 0%.
Take B5: the Max effect was less than 20%.
As for B6, the Max effect is less than 20%.
The same measure, in the same setting: under B7 stands 0%; under B8, 0%.
Regarding B9, the Max effect turned out to be 0%.

For a further assay, the target named is T3, biotinylated IgE Fc (UniProt P01854-1 104-428, biotinylated).
T3 construct: also called IgE Fc (made in-house ALK, Denmark)
T3 sequence (P01854 other isoform, or with tags, fused parts or gaps): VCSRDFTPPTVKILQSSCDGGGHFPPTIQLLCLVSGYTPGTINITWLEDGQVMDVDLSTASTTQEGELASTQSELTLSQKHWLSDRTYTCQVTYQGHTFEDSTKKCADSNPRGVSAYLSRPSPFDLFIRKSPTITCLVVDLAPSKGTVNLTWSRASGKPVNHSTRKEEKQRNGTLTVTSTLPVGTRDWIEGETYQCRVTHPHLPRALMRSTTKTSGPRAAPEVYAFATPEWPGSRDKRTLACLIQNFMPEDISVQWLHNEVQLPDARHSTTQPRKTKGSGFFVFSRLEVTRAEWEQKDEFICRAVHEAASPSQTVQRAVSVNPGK
Kind of assay: BLI (Octet), IgE Fc on sensor, 1:1 fit. The procedure: The biotinylated IgE Fc (made in-house ALK, Denmark) was immobilised on SAX (High precision streptavidin) sensors (FortéBIO) to max 1 nm. The association (240 s) and dissociation (600 s) were measured for the analytes in a serial dilution (from 10 nM to 0.37 nM). Data were subtracted to blank reference sensors exposed to the same serial analyte dilutions, aligned, and analysed in the Octet Data Analysis HT 11.1 Software (FortéBIO) using a 1:1 fitting model.
B2 showed a Kd of 65 nM, a koff of 0.049 s⁻¹ and a kon of 760000 M⁻¹ s⁻¹.
Consider B4, for which the Kd worked out at 0.28 nM, the koff stood at 0.00025 s⁻¹ and the kon worked out at 880000 M⁻¹ s⁻¹.
Taken in the same sequence, the figures for B5 were 0.11 nM, 7.8e-05 s⁻¹ and 700000 M⁻¹ s⁻¹.
In turn, B9 displayed a Kd of 3.2 nM, a koff of 0.00045 s⁻¹ and a kon of 140000 M⁻¹ s⁻¹.

Broadly, the EC50 is the concentration that produces a half-maximal response. A word on the Kd: it is the equilibrium constant for the complex coming apart. Read a high Kd as weaker binding. In general, koff refers to the rate constant with which the complex falls apart. Higher therefore signals a short-lived complex. A word on the kon: it is the rate constant with which the complex forms. A high value points to fast association.
